The data set concerns Saccharomyces cerevisiae. The data set is described as follows: protein stability index of tFT-peptide fusion (C-terminal peptide) (PSI (0-1 scale)); higher = more stable (slower turnover). Particulars: temperature: 30 C. Here is the method:
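MPS profiling in S. cerevisiae of the yeast C-terminome library: the last 12 aa of each annotated ORF are fused to the C-terminus of a sfGFP-mCherry timer, after a GGGS linker. Cells are FACS-sorted into 8 mCherry/sfGFP bins and deep-sequenced. PSI runs from 0 (unstable) to 1 (stable); wild type and das1Δ backgrounds, two technical replicates each.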

Where [1] appears, read: genetic background: das1 deletion.

± gives the standard deviation of the averaged measurements.

In the case of ILRNASQIVSSV [VPS1 C-terminal 12 aa], the protein stability index under setting [1] amounted to 0.7029 ± 0.0038 and the protein stability index (genetic background: wild type) is 0.6942 ± 0.0029.

As to ILRPLELKYFGR [FCY2 C-terminal 12 aa], the protein stability index stood at 0.707 ± 0.029 under setting [1] and 0.675 ± 0.027 (genetic background: wild type).

Regarding “ILSLYFISDRTG [YBR200W-A C-terminal 12 aa]”, the protein stability index reads like this: under setting [1], 0.7249 ± 0.0034; (genetic background: wild type) 0.753 ± 0.053.

As to ILWKNGIYIAHI [HUR1 C-terminal 12 aa], the protein stability index by setting is: under setting [1], 0.659 ± 0.01; (genetic background: wild type) 0.6113 ± 0.0034.

The sequence ININDLMVNRNH [YOR389W C-terminal 12 aa] had a protein stability index under setting [1] of 0.7014 ± 0.0018 and a protein stability index (genetic background: wild type) of 0.7003 ± 0.0012.

Take INKKKSGSGCIC [YPT10 C-terminal 12 aa]: the protein stability index is, setting by setting: under setting [1], 0.696 ± 0.035; (genetic background: wild type) 0.647 ± 0.026.

Take INKRAVSNSKDV [RFT1 C-terminal 12 aa]: the protein stability index under setting [1] was determined as 0.692 ± 0.026 and the protein stability index (genetic background: wild type) worked out at 0.727 ± 0.027.

For IPTKKSQMDYFL [PPH3 C-terminal 12 aa], the protein stability index came to 0.709 ± 0.029 under setting [1] and 0.753 ± 0.064 (genetic background: wild type).

With IRLDGENNSCSC [YPT7 C-terminal 12 aa], the protein stability index by setting is: under setting [1], 0.692 ± 0.017; (genetic background: wild type) 0.697 ± 0.012.

Take “ISRKAGHPAPAF [YML100W-A C-terminal 12 aa]”: the protein stability index turned out to be 0.717 ± 0.0091 under setting [1] and 0.704 ± 0.03 (genetic background: wild type).

As to ITLRLWEQRQAK [MAD1 C-terminal 12 aa], the protein stability index reads like this: under setting [1], 0.754 ± 0.019; (genetic background: wild type) 0.726 ± 0.0076.

As for IYALSIKHPKEI [CPT1 C-terminal 12 aa], the protein stability index by setting is: under setting [1], 0.713 ± 0.0085; (genetic background: wild type) 0.7248 ± 0.0029.

Regarding IYANRDKAKKNM [OPI3 C-terminal 12 aa], the protein stability index was found to be 0.681 ± 0.021 under setting [1] and 0.499 ± 0.03 (genetic background: wild type).

As for “IYIYTSTLQLCV [YHR028W-A C-terminal 12 aa]”, the protein stability index by setting is: under setting [1], 0.376 ± 0.024; (genetic background: wild type) 0.362 ± 0.011.

Regarding “IYSVIQCLFLHS [YMR141W-A C-terminal 12 aa]”, the protein stability index reads like this: under setting [1], 0.64018 ± 0.00059; (genetic background: wild type) 0.607 ± 0.018.

Consider KAALDRVENALA [IML2 C-terminal 12 aa], for which the protein stability index by setting is: under setting [1], 0.699 ± 0.02; (genetic background: wild type) 0.676 ± 0.017.

Turning to KAIEYFEEYQSW [FRE3 C-terminal 12 aa], the protein stability index turned out to be 0.721 ± 0.021 under setting [1] and 0.6952 ± 0.0065 (genetic background: wild type).

As for KDGFVLYSYGQK [SKP2 C-terminal 12 aa], the protein stability index is, setting by setting: under setting [1], 0.69 ± 0.021; (genetic background: wild type) 0.738 ± 0.034.

For the sequence KDKKDKKKKHRD [RPA34 C-terminal 12 aa], the protein stability index amounted to 0.704 ± 0.013 under setting [1] and 0.664 ± 0.035 (genetic background: wild type).

Consider KDLFASIGKKKL [FYV8 C-terminal 12 aa], for which the protein stability index runs as follows: under setting [1], 0.714 ± 0.011; (genetic background: wild type) 0.682 ± 0.026.

For KDWLIKTRKTSL [TVS1 C-terminal 12 aa], the protein stability index under setting [1] came out at 0.707 ± 0.013 and the protein stability index (genetic background: wild type) was 0.693 ± 0.011.

KEDKKKKSSNCC [YPT32 C-terminal 12 aa]: the protein stability index is, setting by setting: under setting [1], 0.704 ± 0.0073; (genetic background: wild type) 0.732 ± 0.014.

Regarding KEGRRSRTRTSS [YJR098C C-terminal 12 aa], the protein stability index under setting [1] is 0.7049 ± 0.0033 and the protein stability index (genetic background: wild type) turned out to be 0.703 ± 0.0041.

As to KENLANNEILDN [YKL063C C-terminal 12 aa], the protein stability index under setting [1] stood at 0.683 ± 0.018 and the protein stability index (genetic background: wild type) is 0.67 ± 0.026.

For the sequence KERIVLSNVRPM [TFC7 C-terminal 12 aa], the protein stability index runs as follows: under setting [1], 0.6909 ± 0.004; (genetic background: wild type) 0.686 ± 0.027.

Consider KESIQQQEDDLL [SEC17 C-terminal 12 aa], for which the protein stability index by setting is: under setting [1], 0.6974 ± 0.0026; (genetic background: wild type) 0.692 ± 0.014.

In the case of KETDKVNDENSI [MLP1 C-terminal 12 aa], the protein stability index was 0.708 ± 0.0044 under setting [1] and 0.756 ± 0.059 (genetic background: wild type).

KETTTRNYRGTC [GAD1 C-terminal 12 aa]: the protein stability index is, setting by setting: under setting [1], 0.71 ± 0.029; (genetic background: wild type) 0.707 ± 0.032.

Consider KFAKANIGYVMG [RPN4 C-terminal 12 aa], for which the protein stability index was found to be 0.4528 ± 0.0025 under setting [1] and 0.495 ± 0.011 (genetic background: wild type).

As to KFDIVDQLLSTL [RSM24 C-terminal 12 aa], the protein stability index under setting [1] came out at 0.7136 ± 0.0037 and the protein stability index (genetic background: wild type) is 0.684 ± 0.014.

Take KFEKKLYNFLGF [GEP4 C-terminal 12 aa]: the protein stability index runs as follows: under setting [1], 0.701 ± 0.028; (genetic background: wild type) 0.717 ± 0.017.

As for KGMKRLDYRFIH [SOA1 C-terminal 12 aa], the protein stability index stood at 0.688 ± 0.029 under setting [1] and 0.234 ± 0.012 (genetic background: wild type).

In the case of KGNLPGVKKGIW [MRP2 C-terminal 12 aa], the protein stability index stood at 0.687 ± 0.012 under setting [1] and 0.668 ± 0.011 (genetic background: wild type).

Consider KGRYVNSSKRRS [NOB1 C-terminal 12 aa], for which the protein stability index reads like this: under setting [1], 0.6955 ± 0.00021; (genetic background: wild type) 0.6781 ± 0.004.

With KGTKRDQNDNHN [AQR1 C-terminal 12 aa], the protein stability index is, setting by setting: under setting [1], 0.698 ± 0.01; (genetic background: wild type) 0.6782 ± 0.0022.

KHAFMGTLKKDL [RPL3 C-terminal 12 aa]: the protein stability index reads like this: under setting [1], 0.7 ± 0.01; (genetic background: wild type) 0.686 ± 0.03.

Consider KIEHVDDETRTH [PEX13 C-terminal 12 aa], for which the protein stability index is, setting by setting: under setting [1], 0.6991 ± 0.0032; (genetic background: wild type) 0.6991 ± 0.0042.

For KILGRYVVDTSK [ADH3 C-terminal 12 aa], the protein stability index reads like this: under setting [1], 0.7177 ± 0.0055; (genetic background: wild type) 0.6547 ± 0.0035.

Regarding KKKRGFLGLFGR [SRP68 C-terminal 12 aa], the protein stability index under setting [1] stood at 0.706 ± 0.021 and the protein stability index (genetic background: wild type) worked out at 0.677 ± 0.0092.

The sequence KKLEGTIEYQKL [RPT4 C-terminal 12 aa] showed a protein stability index under setting [1] of 0.708 ± 0.027 and a protein stability index (genetic background: wild type) of 0.702 ± 0.012.

In the case of KKLNFKLCQAFM [NUP85 C-terminal 12 aa], the protein stability index worked out at 0.673 ± 0.012 under setting [1] and 0.6183 ± 0.006 (genetic background: wild type).

With KKNGKISEKPKK [PDR15 C-terminal 12 aa], the protein stability index turned out to be 0.727 ± 0.02 under setting [1] and 0.677 ± 0.037 (genetic background: wild type).

For the sequence KKNKSAIDGIFG [RMP1 C-terminal 12 aa], the protein stability index by setting is: under setting [1], 0.7173 ± 0.0015; (genetic background: wild type) 0.694 ± 0.014.

On to KKPSSYVMVPRP [MRPL8 C-terminal 12 aa], for which the protein stability index by setting is: under setting [1], 0.708 ± 0.011; (genetic background: wild type) 0.6724 ± 0.002.

KKQESDNDANSK [CMC2 C-terminal 12 aa] had a protein stability index under setting [1] of 0.703 ± 0.014 and a protein stability index (genetic background: wild type) of 0.6755 ± 0.0052.

On to KKSKNRNTSLRP [SIP5 C-terminal 12 aa], for which the protein stability index is, setting by setting: under setting [1], 0.726 ± 0.02; (genetic background: wild type) 0.689 ± 0.02.

Turning to “KLDEAEMQGLIM [YMR158C-A C-terminal 12 aa]”, the protein stability index was 0.69 ± 0.012 under setting [1] and 0.724 ± 0.041 (genetic background: wild type).

Consider KLKRTITLPQLD [CIK1 C-terminal 12 aa], for which the protein stability index by setting is: under setting [1], 0.691 ± 0.022; (genetic background: wild type) 0.761 ± 0.074.

For the sequence KLSAPIFSILHS [APT2 C-terminal 12 aa], the protein stability index is, setting by setting: under setting [1], 0.721 ± 0.0083; (genetic background: wild type) 0.504 ± 0.0051.

“KLTIRIKQKTHL [YOR316C-A C-terminal 12 aa]”: the protein stability index by setting is: under setting [1], 0.702 ± 0.012; (genetic background: wild type) 0.6824 ± 0.0065.

Turning to KMGQSFNAAGKF [TIM10 C-terminal 12 aa], the protein stability index reads like this: under setting [1], 0.692 ± 0.033; (genetic background: wild type) 0.683 ± 0.0072.

For KNFKTDLSSSSL [SMK1 C-terminal 12 aa], the protein stability index under setting [1] came out at 0.7 ± 0.0086 and the protein stability index (genetic background: wild type) worked out at 0.711 ± 0.014.

With KNFYNRHTSPQL [YHL008C C-terminal 12 aa], the protein stability index is, setting by setting: under setting [1], 0.737 ± 0.03; (genetic background: wild type) 0.679 ± 0.02.

As to KNKKNKKKGKKK [CHS5 C-terminal 12 aa], the protein stability index reads like this: under setting [1], 0.694 ± 0.048; (genetic background: wild type) 0.696 ± 0.019.

Take KNLWEKFWAAVA [LYP1 C-terminal 12 aa]: the protein stability index was 0.693 ± 0.0092 under setting [1] and 0.28 ± 0.021 (genetic background: wild type).

Take KNLWHHKINNLN [RAM2 C-terminal 12 aa]: the protein stability index runs as follows: under setting [1], 0.699 ± 0.017; (genetic background: wild type) 0.166 ± 0.021.

For the sequence KNRFSNGRWGRR [SLD2 C-terminal 12 aa], the protein stability index reads like this: under setting [1], 0.701 ± 0.036; (genetic background: wild type) 0.72 ± 0.015.

KNRRRNTKKIAF [RLP24 C-terminal 12 aa]: the protein stability index runs as follows: under setting [1], 0.705 ± 0.03; (genetic background: wild type) 0.6678 ± 0.0055.

With KPEEEKETLQEE [PAF1 C-terminal 12 aa], the protein stability index runs as follows: under setting [1], 0.69 ± 0.046; (genetic background: wild type) 0.649 ± 0.031.

Consider KPSSNNSINIKV [AHK1 C-terminal 12 aa], for which the protein stability index was determined as 0.707 ± 0.033 under setting [1] and 0.743 ± 0.031 (genetic background: wild type).

Regarding KQIVFEIPSETH [RPS7A C-terminal 12 aa], the protein stability index is, setting by setting: under setting [1], 0.701 ± 0.013; (genetic background: wild type) 0.6789 ± 0.0028.

For KQREKYAAVASK [SOP4 C-terminal 12 aa], the protein stability index amounted to 0.692 ± 0.022 under setting [1] and 0.698 ± 0.043 (genetic background: wild type).

The sequence KQSQRQVPHSIK [SPO21 C-terminal 12 aa] registered a protein stability index under setting [1] of 0.7194 ± 0.0004 and a protein stability index (genetic background: wild type) of 0.708 ± 0.011.

For “KQSVQQQKTGNY [YHL009W-A C-terminal 12 aa]”, the protein stability index under setting [1] worked out at 0.699 ± 0.018 and the protein stability index (genetic background: wild type) worked out at 0.663 ± 0.00095.

Take KRLGKKTVVTSR [DCC1 C-terminal 12 aa]: the protein stability index under setting [1] is 0.701 ± 0.011 and the protein stability index (genetic background: wild type) was found to be 0.717 ± 0.055.

On to KRRNWRRTKMNI [RPL39 C-terminal 12 aa], for which the protein stability index is 0.682 ± 0.017 under setting [1] and 0.705 ± 0.04 (genetic background: wild type).

Take KSAKTAKASQEL [HTA2 C-terminal 12 aa]: the protein stability index reads like this: under setting [1], 0.705 ± 0.017; (genetic background: wild type) 0.673 ± 0.023.
